Patent US20030103975A1

What was measured:
[1] = target: soluble αvβ3 integrin heterodimer (Chemicon International) (UniProt P06756); assay: competition ELISA: soluble αvβ3 (5 ng/µl) on wells coated with G^919-1207 (the competitor), with increasing fibronectin
[2] = target: α3β1 integrin on human endothelial cells (TrHBMEC) (human) (UniProt P26006); assay: cell-based or functional assay
α3β1 integrin on human endothelial cells (TrHBMEC) (human), sequence (P26006 33-1051, chain 1 of 2): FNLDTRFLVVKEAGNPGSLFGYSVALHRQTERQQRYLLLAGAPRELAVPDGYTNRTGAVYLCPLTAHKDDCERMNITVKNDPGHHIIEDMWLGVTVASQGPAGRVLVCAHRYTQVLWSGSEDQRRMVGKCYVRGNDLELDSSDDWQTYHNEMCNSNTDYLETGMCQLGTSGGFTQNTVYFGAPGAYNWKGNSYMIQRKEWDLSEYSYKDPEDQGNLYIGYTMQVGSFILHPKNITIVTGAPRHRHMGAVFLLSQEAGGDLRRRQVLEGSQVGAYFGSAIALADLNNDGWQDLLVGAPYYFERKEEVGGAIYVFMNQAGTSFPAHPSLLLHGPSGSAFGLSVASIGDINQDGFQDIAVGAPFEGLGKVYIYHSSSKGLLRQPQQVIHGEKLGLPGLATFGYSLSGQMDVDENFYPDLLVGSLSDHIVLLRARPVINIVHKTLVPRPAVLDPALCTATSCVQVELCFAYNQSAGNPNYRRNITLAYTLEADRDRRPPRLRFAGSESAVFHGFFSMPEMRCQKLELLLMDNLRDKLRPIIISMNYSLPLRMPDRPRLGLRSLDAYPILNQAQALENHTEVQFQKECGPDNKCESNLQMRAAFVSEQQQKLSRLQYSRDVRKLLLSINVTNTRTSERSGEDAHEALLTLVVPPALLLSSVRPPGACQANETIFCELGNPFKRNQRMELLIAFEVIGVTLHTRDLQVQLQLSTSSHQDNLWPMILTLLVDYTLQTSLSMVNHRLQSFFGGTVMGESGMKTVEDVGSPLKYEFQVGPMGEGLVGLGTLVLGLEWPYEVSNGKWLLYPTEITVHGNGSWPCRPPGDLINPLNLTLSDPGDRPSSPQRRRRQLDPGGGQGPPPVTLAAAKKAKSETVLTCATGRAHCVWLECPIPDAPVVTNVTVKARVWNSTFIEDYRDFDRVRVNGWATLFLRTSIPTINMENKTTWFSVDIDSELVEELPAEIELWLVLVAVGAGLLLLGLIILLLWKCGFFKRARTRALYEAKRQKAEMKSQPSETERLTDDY
α3β1 integrin on human endothelial cells (TrHBMEC) (human), sequence (P05556 21-798, chain 2 of 2, further chain): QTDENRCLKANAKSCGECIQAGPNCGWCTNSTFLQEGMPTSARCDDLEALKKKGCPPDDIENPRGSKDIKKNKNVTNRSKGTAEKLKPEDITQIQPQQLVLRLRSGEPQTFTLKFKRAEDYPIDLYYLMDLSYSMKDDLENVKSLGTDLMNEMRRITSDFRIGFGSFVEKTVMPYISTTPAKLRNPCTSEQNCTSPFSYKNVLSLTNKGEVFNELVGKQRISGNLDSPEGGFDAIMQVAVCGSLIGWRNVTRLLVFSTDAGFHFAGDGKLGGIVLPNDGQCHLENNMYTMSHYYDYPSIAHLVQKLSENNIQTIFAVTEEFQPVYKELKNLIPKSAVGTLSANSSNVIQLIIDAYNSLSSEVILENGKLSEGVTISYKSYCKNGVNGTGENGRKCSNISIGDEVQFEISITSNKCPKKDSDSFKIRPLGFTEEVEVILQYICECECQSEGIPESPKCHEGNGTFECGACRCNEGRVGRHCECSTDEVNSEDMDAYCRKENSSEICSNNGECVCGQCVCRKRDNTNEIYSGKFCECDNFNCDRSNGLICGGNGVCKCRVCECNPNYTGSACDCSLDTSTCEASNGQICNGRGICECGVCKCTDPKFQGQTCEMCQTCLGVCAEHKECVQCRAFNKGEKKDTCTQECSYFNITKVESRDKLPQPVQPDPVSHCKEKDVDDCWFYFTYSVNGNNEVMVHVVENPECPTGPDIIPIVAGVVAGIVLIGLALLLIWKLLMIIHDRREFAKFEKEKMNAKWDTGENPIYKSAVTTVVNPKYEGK

soluble αvβ3 integrin heterodimer (Chemicon International), sequence (P06756 31-992, chain 1 of 2): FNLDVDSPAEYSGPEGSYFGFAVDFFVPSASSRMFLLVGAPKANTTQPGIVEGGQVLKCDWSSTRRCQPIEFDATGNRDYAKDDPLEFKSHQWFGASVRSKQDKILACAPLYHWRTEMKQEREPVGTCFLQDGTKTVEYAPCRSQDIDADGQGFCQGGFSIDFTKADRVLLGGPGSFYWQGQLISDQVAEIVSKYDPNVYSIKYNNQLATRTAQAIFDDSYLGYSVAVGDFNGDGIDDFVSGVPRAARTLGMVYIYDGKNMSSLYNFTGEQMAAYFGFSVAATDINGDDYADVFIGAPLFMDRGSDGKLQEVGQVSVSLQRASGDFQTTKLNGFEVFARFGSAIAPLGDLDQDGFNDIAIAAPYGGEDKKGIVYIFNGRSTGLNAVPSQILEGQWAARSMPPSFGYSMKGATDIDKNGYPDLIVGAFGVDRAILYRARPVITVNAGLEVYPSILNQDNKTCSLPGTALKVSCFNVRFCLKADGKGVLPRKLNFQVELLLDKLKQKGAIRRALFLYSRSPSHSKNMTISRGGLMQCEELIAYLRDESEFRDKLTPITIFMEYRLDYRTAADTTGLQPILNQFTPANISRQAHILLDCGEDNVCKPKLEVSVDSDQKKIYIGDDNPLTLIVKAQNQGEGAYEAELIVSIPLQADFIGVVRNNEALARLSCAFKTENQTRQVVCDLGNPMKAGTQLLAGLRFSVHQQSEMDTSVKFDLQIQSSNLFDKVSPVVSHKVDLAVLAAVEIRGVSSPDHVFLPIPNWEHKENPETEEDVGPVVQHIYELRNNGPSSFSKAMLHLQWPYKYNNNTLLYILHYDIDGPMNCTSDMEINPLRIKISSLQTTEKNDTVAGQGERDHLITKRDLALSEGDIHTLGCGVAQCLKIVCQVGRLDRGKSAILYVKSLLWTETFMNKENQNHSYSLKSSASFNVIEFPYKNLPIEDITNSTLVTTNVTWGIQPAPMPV
soluble αvβ3 integrin heterodimer (Chemicon International), sequence (P05106 27-718, chain 2 of 2, further chain): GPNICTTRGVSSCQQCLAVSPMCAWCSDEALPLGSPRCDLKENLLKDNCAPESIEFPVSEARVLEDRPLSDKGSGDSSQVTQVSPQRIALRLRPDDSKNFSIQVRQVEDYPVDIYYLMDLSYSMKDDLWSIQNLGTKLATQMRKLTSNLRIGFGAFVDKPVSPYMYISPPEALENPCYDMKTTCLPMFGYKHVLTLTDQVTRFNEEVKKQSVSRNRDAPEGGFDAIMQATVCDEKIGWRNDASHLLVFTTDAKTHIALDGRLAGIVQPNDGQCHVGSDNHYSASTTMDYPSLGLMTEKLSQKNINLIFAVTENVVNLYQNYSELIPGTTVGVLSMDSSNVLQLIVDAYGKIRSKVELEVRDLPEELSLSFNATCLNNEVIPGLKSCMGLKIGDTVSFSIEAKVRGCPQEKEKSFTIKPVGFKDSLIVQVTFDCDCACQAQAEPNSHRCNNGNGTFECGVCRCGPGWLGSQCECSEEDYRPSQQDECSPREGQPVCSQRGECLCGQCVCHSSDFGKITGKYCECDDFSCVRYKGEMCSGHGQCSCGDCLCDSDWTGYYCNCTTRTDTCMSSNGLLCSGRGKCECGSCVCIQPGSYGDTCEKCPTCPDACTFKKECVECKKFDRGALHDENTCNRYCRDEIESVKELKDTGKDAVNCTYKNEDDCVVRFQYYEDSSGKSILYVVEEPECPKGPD

| IC50 [1] [nM] | inhibition of endothelial cell adhesion to laminin 5 by a combination of antibodies against the α3 and α6 integrin subunits [2] [%] | inhibition of endothelial cell adhesion to laminin 5 by antibody 6S6 against β1 integrin [2] [%] | inhibition of endothelial cell adhesion to laminin 5 by antibody LM609 against αvβ3 integrin [2] [%] | Substance |
| --- | --- | --- | --- | --- |
| 84 | – | – | – | human fibronectin (BD Biosciences), P02751 32-2296 (ligand) |
| – | 40 | > 80 | 60 | laminin 5 derived from conditioned medium of cultured epithelial cells (ligand) |
